B1: Refmab #2 (antibody, V domains shown)
VH: QVQLVQSGAEVKKPGSSVKVSCKASGGTFSDYAISWVRQAPGQGLEWMGRIIPILGVADYAQKFQGRVTITADKSTRTAYMELSSLRSEDTAVYYCARNWADAFDIWGQGTMVTVSS
VL: DIQLTQSPSSLSASVGDRVTITCRASQGISSVLAWYQQKPGKAPKLLIYDASSLESGVPSRFSGSGSGTDFTLTISSLQPEDFATYYCQQFDSSITFGQGTKLEIK
notes: The alanine scan used IgG or Fab
B2: Refmab #1 (antibody, V domains shown)
VH: EVQLVQSGAEVKKPGSSVKVSCKASGYTITDSNIHWVRQAPGQSLEWIGYIYPYNGGTDYNQKFKNRATLTVDNPTNTAYMELSSLRSEDTAFYYCVNGNPWLAYWGQGTLVTVSS
VL: DIQLTQSPSTLSASVGDRVTITCRASESLDNYGIRFLTWFQQKPGKAPKLLMYAASNQGSGVPSRFSGSGSGTEFTLTISSLQPDDFATYYCQQTKEVPWSFGQGTKVEVK
notes: The alanine scan used IgG or Fab; also called hP67.6
B3: Refmab #4 (antibody, V domains shown)
VH: QVQLVQSGAEVKKPGESVKVSCKASGYTFTNYGMNWVKQAPGQGLEWMGWINTYTGEPTYADKFQGRVTMTTDTSTSTAYMEIRNLGGDDTAVYYCARWSWSDGYYVYFDYWGQGTSVTVSS
VL: DIVMTQSPDSLTVSLGERTTINCKSSQSVLDSSTNKNSLAWYQQKPGQPPKLLLSWASTRESGIPDRFSGSGSGTDFTLTIDSPQPEDSATYYCQQSAHFPITFGQGTRLEIK
notes: as for B1

Experiments:
Assay in all cases: flow cytometry on HEK293-T, alanine scan
human CD33 D140A = human CD33 D140A (human, UniProt P20138 18-364)
human CD33 D140A, sequence (P20138 18-364 D140A limits assumed): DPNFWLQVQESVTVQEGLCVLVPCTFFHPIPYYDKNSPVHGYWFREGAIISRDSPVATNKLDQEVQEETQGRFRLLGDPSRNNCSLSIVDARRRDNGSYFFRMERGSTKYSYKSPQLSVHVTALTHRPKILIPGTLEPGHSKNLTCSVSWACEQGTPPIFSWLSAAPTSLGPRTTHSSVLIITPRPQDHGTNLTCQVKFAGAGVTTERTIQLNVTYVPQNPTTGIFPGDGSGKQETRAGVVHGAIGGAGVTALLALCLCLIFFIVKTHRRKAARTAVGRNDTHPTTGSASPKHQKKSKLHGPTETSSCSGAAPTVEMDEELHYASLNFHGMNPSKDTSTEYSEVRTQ
Description: (§1) An alanine scan on human CD33 was performed to the determine the residues on CD33 that are involved in binding to the antibodies investigated. […] Briefly, a mutation library of CD33 was created by high-throughput, site-directed mutagenesis. Each residue was individually mutated to alanine, with alanine codons mutated to serine. The mutant library was arrayed in 384-well microplates and transiently transfected into HEK293-T. Following transfection, cells were incubated with the indicated antibodies (IgG or Fab) at concentrations pre-determined using an independent immunofluorescence titration curve on wild type CD33. […] Binding of each antibody to each mutant clone was determined in duplicates. For each point, background fluorescence was subtracted from the raw data, which were then normalized to antibody reactivity with wild type CD33.
(§2) Critical residues for antibody binding (outlined in dark grey) were residues whose mutations led to a binding of the test Abs of less than 20%. Additional secondary residues (outlined in light grey) were identified that led to a binding of the test Abs of between 20 and 40% as compared to the wild type CD33.

human CD33 S128A = human CD33 S128A (human, UniProt P20138 18-364)
human CD33 S128A, sequence (P20138 18-364 S128A limits assumed): as the sequence (P20138 18-364 D140A limits assumed) above, with S111A, A123D counted along it
Description: as §1, §2

human CD33 L93A = human CD33 L93A (human, UniProt P20138 18-364)
human CD33 L93A, sequence (P20138 18-364 L93A limits assumed): as the sequence (P20138 18-364 D140A limits assumed) above, with L76A, A123D counted along it
Description: as §1, §2

human CD33 S102A = human CD33 S102A (human, UniProt P20138 18-364)
human CD33 S102A, sequence (P20138 18-364 S102A limits assumed): as the sequence (P20138 18-364 D140A limits assumed) above, with S85A, A123D counted along it
Description: as §1, §2

human CD33 K130A = human CD33 K130A (human, UniProt P20138 18-364)
human CD33 K130A, sequence (P20138 18-364 K130A limits assumed): as the sequence (P20138 18-364 D140A limits assumed) above, with K113A, A123D counted along it
Description: as §1, §2

human CD33 G94A = human CD33 G94A (human, UniProt P20138 18-364)
human CD33 G94A, sequence (P20138 18-364 G94A limits assumed): as the sequence (P20138 18-364 D140A limits assumed) above, with G77A, A123D counted along it
Description: as §1, §2

human CD33 Y116A = human CD33 Y116A (human, UniProt P20138 18-364)
human CD33 Y116A, sequence (P20138 18-364 Y116A limits assumed): as the sequence (P20138 18-364 D140A limits assumed) above, with Y99A, A123D counted along it
Description: as §1, §2

human CD33 C101A = human CD33 C101A (human, UniProt P20138 18-364)
human CD33 C101A, sequence (P20138 18-364 C101A limits assumed): as the sequence (P20138 18-364 D140A limits assumed) above, with C84A, A123D counted along it
Description: as §1, §2

human CD33 P132A = human CD33 P132A (human, UniProt P20138 18-364)
human CD33 P132A, sequence (P20138 18-364 P132A limits assumed): as the sequence (P20138 18-364 D140A limits assumed) above, with P115A, A123D counted along it
Description: as §1, §2

human CD33 V106A = human CD33 V106A (human, UniProt P20138 18-364)
human CD33 V106A, sequence (P20138 18-364 V106A limits assumed): as the sequence (P20138 18-364 D140A limits assumed) above, with V89A, A123D counted along it
Description: as §1, §2

human CD33 G114A = human CD33 G114A (human, UniProt P20138 18-364)
human CD33 G114A, sequence (P20138 18-364 G114A limits assumed): as the sequence (P20138 18-364 D140A limits assumed) above, with G97A, A123D counted along it
Description: as §1, §2

human CD33 L161A = human CD33 L161A (human, UniProt P20138 18-364)
human CD33 L161A, sequence (P20138 18-364 L161A limits assumed): as the sequence (P20138 18-364 D140A limits assumed) above, with A123D, L144A counted along it
Description: as §1, §2

human CD33 S166A = human CD33 S166A (human, UniProt P20138 18-364)
human CD33 S166A, sequence (P20138 18-364 S166A limits assumed): as the sequence (P20138 18-364 D140A limits assumed) above, with A123D, S149A counted along it
Description: as §1, §2

human CD33 P150A = human CD33 P150A (human, UniProt P20138 18-364)
human CD33 P150A, sequence (P20138 18-364 P150A limits assumed): as the sequence (P20138 18-364 D140A limits assumed) above, with A123D, P133A counted along it
Description: as §1, §2

human CD33 G156A = human CD33 G156A (human, UniProt P20138 18-364)
human CD33 G156A, sequence (P20138 18-364 G156A limits assumed): as the sequence (P20138 18-364 D140A limits assumed) above, with A123D, G139A counted along it
Description: as §1, §2

human CD33 L103A = human CD33 L103A (human, UniProt P20138 18-364)
human CD33 L103A, sequence (P20138 18-364 L103A limits assumed): as the sequence (P20138 18-364 D140A limits assumed) above, with L86A, A123D counted along it
Description: as §1, §2

human CD33 Y127A = human CD33 Y127A (human, UniProt P20138 18-364)
human CD33 Y127A, sequence (P20138 18-364 Y127A limits assumed): as the sequence (P20138 18-364 D140A limits assumed) above, with Y110A, A123D counted along it
Description: as §1, §2

human CD33 R122A = human CD33 R122A (human, UniProt P20138 18-364)
human CD33 R122A, sequence (P20138 18-364 R122A limits assumed): as the sequence (P20138 18-364 D140A limits assumed) above, with R105A, A123D counted along it
Description: as §1, §2

human CD33 S104A = human CD33 S104A (human, UniProt P20138 18-364)
human CD33 S104A, sequence (P20138 18-364 S104A limits assumed): as the sequence (P20138 18-364 D140A limits assumed) above, with S87A, A123D counted along it
Description: as §1, §2

human CD33 S164A = human CD33 S164A (human, UniProt P20138 18-364)
human CD33 S164A, sequence (P20138 18-364 S164A limits assumed): as the sequence (P20138 18-364 D140A limits assumed) above, with A123D, S147A counted along it
Description: as §1, §2

human CD33 S115A = human CD33 S115A (human, UniProt P20138 18-364)
human CD33 S115A, sequence (P20138 18-364 S115A limits assumed): as the sequence (P20138 18-364 D140A limits assumed) above, with S98A, A123D counted along it
Description: as §1, §2

human CD33 V136A = human CD33 V136A (human, UniProt P20138 18-364)
human CD33 V136A, sequence (P20138 18-364 V136A limits assumed): as the sequence (P20138 18-364 D140A limits assumed) above, with V119A, A123D counted along it
Description: as §1, §2

human CD33 S158A = human CD33 S158A (human, UniProt P20138 18-364)
human CD33 S158A, sequence (P20138 18-364 S158A limits assumed): as the sequence (P20138 18-364 D140A limits assumed) above, with A123D, S141A counted along it
Description: as §1, §2

human CD33 G151A = human CD33 G151A (human, UniProt P20138 18-364)
human CD33 G151A, sequence (P20138 18-364 G151A limits assumed): as the sequence (P20138 18-364 D140A limits assumed) above, with A123D, G134A counted along it
Description: as §1, §2

human CD33 A108S = human CD33 A108S (human, UniProt P20138 18-364)
human CD33 A108S, sequence (P20138 18-364 A108S limits assumed): as the sequence (P20138 18-364 D140A limits assumed) above, with A91S, A123D counted along it
Description: as §1, §2

human CD33 Q133A = human CD33 Q133A (human, UniProt P20138 18-364)
human CD33 Q133A, sequence (P20138 18-364 Q133A limits assumed): as the sequence (P20138 18-364 D140A limits assumed) above, with Q116A, A123D counted along it
Description: as §1, §2

human CD33 R98A = human CD33 R98A (human, UniProt P20138 18-364)
human CD33 R98A, sequence (P20138 18-364 R98A limits assumed): as the sequence (P20138 18-364 D140A limits assumed) above, with R81A, A123D counted along it
Description: as §1, §2

human CD33 R111A = human CD33 R111A (human, UniProt P20138 18-364)
human CD33 R111A, sequence (P20138 18-364 R111A limits assumed): as the sequence (P20138 18-364 D140A limits assumed) above, with R94A, A123D counted along it
Description: as §1, §2

human CD33 K159A = human CD33 K159A (human, UniProt P20138 18-364)
human CD33 K159A, sequence (P20138 18-364 K159A limits assumed): as the sequence (P20138 18-364 D140A limits assumed) above, with A123D, K142A counted along it
Description: as §1, §2

human CD33 V165A = human CD33 V165A (human, UniProt P20138 18-364)
human CD33 V165A, sequence (P20138 18-364 V165A limits assumed): as the sequence (P20138 18-364 D140A limits assumed) above, with A123D, V148A counted along it
Description: as §1, §2

human CD33 E121A = human CD33 E121A (human, UniProt P20138 18-364)
human CD33 E121A, sequence (P20138 18-364 E121A limits assumed): as the sequence (P20138 18-364 D140A limits assumed) above, with E104A, A123D counted along it
Description: as §1, §2

Binder	Mean % WT Binding (human CD33 D140A)	Mean % WT Binding (human CD33 S128A)	Mean % WT Binding (human CD33 L93A)	Mean % WT Binding (human CD33 S102A)	Mean % WT Binding (human CD33 K130A)	Mean % WT Binding (human CD33 G94A)	Mean % WT Binding (human CD33 Y116A)	Mean % WT Binding (human CD33 C101A)	Mean % WT Binding (human CD33 P132A)	Mean % WT Binding (human CD33 V106A)	Mean % WT Binding (human CD33 G114A)	Mean % WT Binding (human CD33 L161A)	Mean % WT Binding (human CD33 S166A)	Mean % WT Binding (human CD33 P150A)	Mean % WT Binding (human CD33 G156A)	Mean % WT Binding (human CD33 L103A)	Mean % WT Binding (human CD33 Y127A)	Mean % WT Binding (human CD33 R122A)	Mean % WT Binding (human CD33 S104A)	Mean % WT Binding (human CD33 S164A)	also measured
B1	109 % WT binding	140 % WT binding	103 % WT binding	89.6 % WT binding	123 % WT binding	108 % WT binding	0.7 % WT binding	0.6 % WT binding	102 % WT binding	112 % WT binding	116 % WT binding	114 % WT binding	114 % WT binding	112 % WT binding	99.4 % WT binding	110 % WT binding	146 % WT binding	3.6 % WT binding	109 % WT binding	117 % WT binding	Mean % WT Binding (human CD33 S115A): 93.2 % WT binding; Mean % WT Binding (human CD33 V136A): 99.8 % WT binding; Mean % WT Binding (human CD33 S158A): 111 % WT binding; Mean % WT Binding (human CD33 G151A): 132 % WT binding; Mean % WT Binding (human CD33 A108S): 104 % WT binding; Mean % WT Binding (human CD33 Q133A): 131 % WT binding; Mean % WT Binding (human CD33 R98A): 122 % WT binding; Mean % WT Binding (human CD33 R111A): 108 % WT binding; Mean % WT Binding (human CD33 K159A): 134 % WT binding; Mean % WT Binding (human CD33 V165A): 124 % WT binding; Mean % WT Binding (human CD33 E121A): 109 % WT binding
B2	88.7 % WT binding	118 % WT binding	88.6 % WT binding	85.8 % WT binding	106 % WT binding	88.3 % WT binding	0.9 % WT binding	1.1 % WT binding	107 % WT binding	88.5 % WT binding	96.9 % WT binding	87 % WT binding	98.3 % WT binding	78.4 % WT binding	83.4 % WT binding	96.3 % WT binding	92.6 % WT binding	107 % WT binding	89 % WT binding	101 % WT binding	Mean % WT Binding (human CD33 S115A): 86.9 % WT binding; Mean % WT Binding (human CD33 V136A): 64.2 % WT binding; Mean % WT Binding (human CD33 S158A): 87.1 % WT binding; Mean % WT Binding (human CD33 G151A): 81.1 % WT binding; Mean % WT Binding (human CD33 A108S): 85.3 % WT binding; Mean % WT Binding (human CD33 Q133A): 95.6 % WT binding; Mean % WT Binding (human CD33 R98A): 99.1 % WT binding; Mean % WT Binding (human CD33 R111A): 100 % WT binding; Mean % WT Binding (human CD33 K159A): 119 % WT binding; Mean % WT Binding (human CD33 V165A): 91.6 % WT binding; Mean % WT Binding (human CD33 E121A): 87.7 % WT binding
B3	96.1 % WT binding	184 % WT binding	63.9 % WT binding	73.6 % WT binding	180 % WT binding	59 % WT binding	5.4 % WT binding	1.5 % WT binding	70.1 % WT binding	110 % WT binding	110 % WT binding	114 % WT binding	110 % WT binding	103 % WT binding	67.2 % WT binding	85.9 % WT binding	300 % WT binding	23 % WT binding	86.4 % WT binding	112 % WT binding	Mean % WT Binding (human CD33 S115A): 36.4 % WT binding; Mean % WT Binding (human CD33 V136A): 47.7 % WT binding; Mean % WT Binding (human CD33 S158A): 98 % WT binding; Mean % WT Binding (human CD33 G151A): 101 % WT binding; Mean % WT Binding (human CD33 A108S): 86.5 % WT binding; Mean % WT Binding (human CD33 Q133A): 96 % WT binding; Mean % WT Binding (human CD33 R98A): 128 % WT binding; Mean % WT Binding (human CD33 R111A): 94.3 % WT binding; Mean % WT Binding (human CD33 K159A): 118 % WT binding; Mean % WT Binding (human CD33 V165A): 117 % WT binding; Mean % WT Binding (human CD33 E121A): 77.3 % WT binding

From US20260242735A1 (UNIVERSIT T BASEL, published 2026)
